Data on eight molecules can be found in patent publication US20150344570A1 (published 2015).

The target of assay [1] is T1, FcγRIa extracellular domain with C-terminal His tag (human, UniProt P12314 16-292).
T1 construct: extracellular domain; expressed in FreeStyle293 cells; analyte in Biacore; also called FcgRI; 1a
Put plainly: SPR (Biacore), captured antibody, FcγR as analyte; relative binding.
T1 sequence (P12314 16-292): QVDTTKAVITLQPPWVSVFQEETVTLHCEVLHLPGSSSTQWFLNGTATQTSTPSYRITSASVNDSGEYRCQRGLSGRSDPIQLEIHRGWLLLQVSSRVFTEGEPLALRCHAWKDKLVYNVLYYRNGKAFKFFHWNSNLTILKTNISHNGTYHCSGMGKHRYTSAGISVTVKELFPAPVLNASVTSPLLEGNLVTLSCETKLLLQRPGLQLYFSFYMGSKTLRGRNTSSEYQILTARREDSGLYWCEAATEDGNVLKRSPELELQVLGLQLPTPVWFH

Assay [2] addresses T2, FcγRIIb extracellular domain with C-terminal His tag (human, UniProt P31994 43-217).
T2 construct: extracellular domain; expressed in FreeStyle293 cells; analyte in Biacore; also called FcgRIIb; 2b
T2 sequence (looked up): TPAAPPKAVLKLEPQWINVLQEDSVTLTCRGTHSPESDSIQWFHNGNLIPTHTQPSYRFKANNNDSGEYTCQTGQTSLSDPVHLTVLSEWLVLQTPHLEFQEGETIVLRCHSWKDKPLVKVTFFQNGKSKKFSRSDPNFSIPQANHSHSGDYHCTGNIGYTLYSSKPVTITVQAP
The assay is described as above.

In assay [3] the target is T1, FcγRIa extracellular domain with …. Put plainly: SPR (Biacore); He/Con_1a divided by He/Con_2b (FcγRIIb as reference). On the technique in general: Surface plasmon resonance follows binding to a sensor surface in real time, without labels.
Assay [4] has as its target T3, FcγRIa extracellular domain with C-terminal His tag (human, UniProt P12314 16-292).
T3 construct: extracellular domain; soluble analyte in Biacore; also called FcgRI; not shown: His tag at the C terminus
Nature of the assay: SPR, binding relative to GpH7-A5/GpH7-B3/GpL16-k0 = 100.
T3 sequence (P12314 16-292): as the sequence (P12314 16-292) above

The target in assay [5] is T4, FcγRIIb extracellular domain with C-terminal His tag (human, UniProt P31994 43-217).
T4 construct: extracellular domain; soluble analyte in Biacore; also called FcgRIIb; not shown: His tag at the C terminus
T4 sequence (looked up): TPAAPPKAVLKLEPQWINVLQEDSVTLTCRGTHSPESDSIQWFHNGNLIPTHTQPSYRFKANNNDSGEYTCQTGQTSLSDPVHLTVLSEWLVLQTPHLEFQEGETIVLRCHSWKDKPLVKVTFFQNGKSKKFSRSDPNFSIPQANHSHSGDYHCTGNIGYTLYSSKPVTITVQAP
Described as above.

The target in assay [6] is T3, FcγRIa extracellular domain with …. Put plainly: SPR; He/Con_1a divided by He/Con_2b (FcγRIa against FcγRIIb). As to the method: The heterodimerized antibodies He Abs in which one of the H chains was introduced with an alteration were assayed for their binding activities to each activating FcγR and inhibitory FcγR according to the method described in Example 4. […] The activating FcγRs in FIGS. 26, 27, 28, and 29 are FcγRIa, FcγRIIa (R), FcγRIIa (H), and FcγRIIIa, respectively.
Analysis of interaction between objective antibody and the FcγR was carried out using Biacore T100 (GE Healthcare). HBS-EP+ (GE Healthcare) was used as the running buffer, and the measurement temperature was set to 25° C. Chips produced by immobilizing the antigen peptide by the amine coupling method to a Series S Sencor Chip CM5 (GE Healthcare), or alternatively, chips produced by allowing preliminarily biotinylated antigen peptides to interact with and immobilize onto a Series S Sensor Chip SA (certified) (GE Healthcare) were used. Antibodies of interest were captured onto an antigen peptide-immobilized chip, and allowed to interact to each FcγR diluted with running buffer. To regenerate and repeatedly use the chip, the antibodies captured on the chip were washed off by reacting 10 mM glycine-HCl, pH 1.5.

B1: GpH7-A5/GpH7-B3 variant V266_04F/GpL16-k0 (antibody, human IgG1, kappa)
heavy 1: not shown
heavy 2: not shown
light: DIVMTQSPLSLPVTPGEPASISCQASESLVHSNRNTYLHWYLQKPGQSPQLLIYKVSNRFSGVPDRFSGSGSGTDFTLKISRVEAEDVGVYYCSQNTHVPPTFGQGTKVEIERTVAAPSVFIFPPSDEQLKSGTASVVCLLNNFYPREAKVQWKVDNALQSGNSQESVTEQDSKDSTYSLSSTLTLSKADYEKHKVYACEVTHQGLSSPVTKSFNRGEC
notes: He Ab; IgG1, mutation in one H chain
B1: the He/Con_1a in assay [1] is 96.7 % of HeCon Ab (GpH7-A5/GpH7-B3/GpL16-k0 = 100). In addition, in assay [2], the He/Con_2b is 57.6 % of HeCon Ab (GpH7-A5/GpH7-B3/GpL16-k0 = 100). Besides, the “He_1a/2b (Ia/IIb)” value in assay [3] came out at 1.68 ratio.

B2: GpH7-A5/GpH7-B3 variant D265_18N/GpL16-k0 (antibody, human IgG1, kappa)
heavy 1: not shown
heavy 2: not shown
light: DIVMTQSPLSLPVTPGEPASISCQASESLVHSNRNTYLHWYLQKPGQSPQLLIYKVSNRFSGVPDRFSGSGSGTDFTLKISRVEAEDVGVYYCSQNTHVPPTFGQGTKVEIERTVAAPSVFIFPPSDEQLKSGTASVVCLLNNFYPREAKVQWKVDNALQSGNSQESVTEQDSKDSTYSLSSTLTLSKADYEKHKVYACEVTHQGLSSPVTKSFNRGEC
notes: as for B1
Take B2: the He/Con_1a in assay [1] was 27.7 % of HeCon Ab (GpH7-A5/GpH7-B3/GpL16-k0 = 100). Besides, the He/Con_2b in assay [2] was 6.1 % of HeCon Ab (GpH7-A5/GpH7-B3/GpL16-k0 = 100). Also, the “He_1a/2b (Ia/IIb)” value in assay [3] came out at 4.52 ratio.

B3: GpH7-A5/GpH7-B3 variant S239_20W/GpL16-k0 (antibody, human IgG1, kappa)
heavy 1: not shown
heavy 2: not shown
light: DIVMTQSPLSLPVTPGEPASISCQASESLVHSNRNTYLHWYLQKPGQSPQLLIYKVSNRFSGVPDRFSGSGSGTDFTLKISRVEAEDVGVYYCSQNTHVPPTFGQGTKVEIERTVAAPSVFIFPPSDEQLKSGTASVVCLLNNFYPREAKVQWKVDNALQSGNSQESVTEQDSKDSTYSLSSTLTLSKADYEKHKVYACEVTHQGLSSPVTKSFNRGEC
notes: as for B1
With B3, the He/Con_1a in assay [1] was 92.7 % of HeCon Ab (GpH7-A5/GpH7-B3/GpL16-k0 = 100). Further, the He/Con_2b in assay [2] is 45.1 % of HeCon Ab (GpH7-A5/GpH7-B3/GpL16-k0 = 100). Moreover, the “He_1a/2b (Ia/IIb)” value in assay [3] was 2.06 ratio.

B4: GpH7-A5/GpH7-B3 variant V266_01G/GpL16-k0 (antibody, human IgG1, kappa)
heavy 1: not shown
heavy 2: not shown
light: DIVMTQSPLSLPVTPGEPASISCQASESLVHSNRNTYLHWYLQKPGQSPQLLIYKVSNRFSGVPDRFSGSGSGTDFTLKISRVEAEDVGVYYCSQNTHVPPTFGQGTKVEIERTVAAPSVFIFPPSDEQLKSGTASVVCLLNNFYPREAKVQWKVDNALQSGNSQESVTEQDSKDSTYSLSSTLTLSKADYEKHKVYACEVTHQGLSSPVTKSFNRGEC
notes: as for B1
For the molecule B4, the He/Con_1a in assay [1] is 91.3 % of HeCon Ab (GpH7-A5/GpH7-B3/GpL16-k0 = 100). Besides, the He/Con_2b in assay [2] was 51.5 % of HeCon Ab (GpH7-A5/GpH7-B3/GpL16-k0 = 100). In addition, the “He_1a/2b (Ia/IIb)” value in assay [3] was found to be 1.77 ratio.

B5: GpH7-A5/GpH7-B3 variant V266_10E/GpL16-k0 (antibody, human IgG1, kappa)
heavy 1: not shown
heavy 2: not shown
light: DIVMTQSPLSLPVTPGEPASISCQASESLVHSNRNTYLHWYLQKPGQSPQLLIYKVSNRFSGVPDRFSGSGSGTDFTLKISRVEAEDVGVYYCSQNTHVPPTFGQGTKVEIERTVAAPSVFIFPPSDEQLKSGTASVVCLLNNFYPREAKVQWKVDNALQSGNSQESVTEQDSKDSTYSLSSTLTLSKADYEKHKVYACEVTHQGLSSPVTKSFNRGEC
notes: as for B1
B5: the He/Con_1a in assay [1] was 81.9 % of HeCon Ab (GpH7-A5/GpH7-B3/GpL16-k0 = 100). The He/Con_2b in assay [2] is 15.2 % of HeCon Ab (GpH7-A5/GpH7-B3/GpL16-k0 = 100). In addition, the “He_1a/2b (Ia/IIb)” value in assay [3] came out at 5.37 ratio.

B6: GpH7-A5/GpH7-B3 variant D270_03V/GpL16-k0 (antibody, human IgG1, kappa)
heavy 1: not shown
heavy 2: not shown
light: DIVMTQSPLSLPVTPGEPASISCQASESLVHSNRNTYLHWYLQKPGQSPQLLIYKVSNRFSGVPDRFSGSGSGTDFTLKISRVEAEDVGVYYCSQNTHVPPTFGQGTKVEIERTVAAPSVFIFPPSDEQLKSGTASVVCLLNNFYPREAKVQWKVDNALQSGNSQESVTEQDSKDSTYSLSSTLTLSKADYEKHKVYACEVTHQGLSSPVTKSFNRGEC
notes: change in the GpH7-B3 H chain only; also called He Ab
On to B6, for which the He/Con_1a in assay [4] was 77.9 % of control. In addition, in assay [5], the He/Con_2b was 39.5 % of control. In addition, the “He_1a/2b (Ia/IIb)” value in assay [6] amounted to 1.97 ratio.

B7: GpH7-A5/GpH7-B3 variant D265_19Q/GpL16-k0 (antibody, human IgG1, kappa)
heavy 1: not shown
heavy 2: not shown
light: DIVMTQSPLSLPVTPGEPASISCQASESLVHSNRNTYLHWYLQKPGQSPQLLIYKVSNRFSGVPDRFSGSGSGTDFTLKISRVEAEDVGVYYCSQNTHVPPTFGQGTKVEIERTVAAPSVFIFPPSDEQLKSGTASVVCLLNNFYPREAKVQWKVDNALQSGNSQESVTEQDSKDSTYSLSSTLTLSKADYEKHKVYACEVTHQGLSSPVTKSFNRGEC
notes: as for B1
As to B7, the He/Con_1a in assay [1] was 88.8 % of HeCon Ab (GpH7-A5/GpH7-B3/GpL16-k0 = 100). Further, the He/Con_2b in assay [2] is 33.4 % of HeCon Ab (GpH7-A5/GpH7-B3/GpL16-k0 = 100). Besides, in assay [3], the “He_1a/2b (Ia/IIb)” value is 2.66 ratio.

B8: GpH7-A5/GpH7-B3 variant V266_09D/GpL16-k0 (antibody, human IgG1, kappa)
heavy 1: not shown
heavy 2: not shown
light: DIVMTQSPLSLPVTPGEPASISCQASESLVHSNRNTYLHWYLQKPGQSPQLLIYKVSNRFSGVPDRFSGSGSGTDFTLKISRVEAEDVGVYYCSQNTHVPPTFGQGTKVEIERTVAAPSVFIFPPSDEQLKSGTASVVCLLNNFYPREAKVQWKVDNALQSGNSQESVTEQDSKDSTYSLSSTLTLSKADYEKHKVYACEVTHQGLSSPVTKSFNRGEC
notes: as for B1
With B8, the He/Con_1a in assay [1] was 79.3 % of HeCon Ab (GpH7-A5/GpH7-B3/GpL16-k0 = 100). In assay [2], the He/Con_2b is 10.1 % of HeCon Ab (GpH7-A5/GpH7-B3/GpL16-k0 = 100). For the same molecule, the “He_1a/2b (Ia/IIb)” value in assay [3] amounted to 7.88 ratio.
